# From patent US20240052038A1
# Where two headings read alike, the source gives them in different places.
# Legend:
# [1] = target: Fc-γ receptors expressed on the immune cells; assay: cell-based or functional assay
# [2] = target: Fc-γ receptors expressed on the immune cells; assay: cell-based or functional assay; remark: listed apart in the source
# [3] = target: mouse PD-L1 on CD3+ T lymphocytes (mouse) (UniProt Q9EP73); assay: receptor occupancy on blood CD3+ T cells by flow cytometry, mice dosed with 1.5 mg/mouse, day 10
# [4] = target: mouse PD-L1 on CD3+ T lymphocytes (mouse) (UniProt Q9EP73); assay: receptor occupancy on blood CD3+ T cells by flow cytometry, correlated with serum antibody concentration after a single injection in mice
# mouse PD-L1 on CD3+ T lymphocytes (mouse), sequence (Q9EP73 19-290): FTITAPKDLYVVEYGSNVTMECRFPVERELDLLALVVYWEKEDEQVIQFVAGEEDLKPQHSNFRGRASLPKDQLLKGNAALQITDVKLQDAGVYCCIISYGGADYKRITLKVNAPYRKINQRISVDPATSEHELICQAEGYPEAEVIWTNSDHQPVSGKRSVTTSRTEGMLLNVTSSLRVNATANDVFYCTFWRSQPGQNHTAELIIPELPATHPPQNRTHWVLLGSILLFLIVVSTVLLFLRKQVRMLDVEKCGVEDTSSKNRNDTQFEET
substance,measurement,setting,value
Rituximab (antibody),"EC50 (ADCC, Raji/CD-20 target cells, E/T 25:1)",[1],2.1 ng/mL
same,"Target cell lysis (ADCC, Raji/CD-20 target cells, E/T 25:1)",[1],53.5%
same,"EC50 (ADCC, Raji/CD-20 target cells, E/T 25:1)",[2],1.9 ng/mL
same,"Target cell lysis (ADCC, Raji/CD-20 target cells, E/T 25:1)",[2],43.6%
same,"Target cell lysis (ADCC, Raji/CD-20 target cells, PBMC effectors, E/T 25:1)",[2],48.8%
"rat anti-mouse PD-L1 monoclonal antibody (clone 10F.9G2, BioXCell)",receptor occupancy,[3],> 60%
same,serum antibody concentration above which complete target occupancy was achieved,[4],1 nM
biosimilar of atezolizumab (antibody),"EC50 (ADCC, CHO-K1/PD-L1 target cells, E/T 25:1; no dose response curve)",[2],9.5 ng/mL
same,"Target cell lysis (ADCC, CHO-K1/PD-L1 target cells, E/T 25:1)",[2],1.4%
